Measurements reported in patent US20060263802A1 (CRUCELL HOLLAND B V, published 2006).

Tests used:
Assay in all cases: PEPSCAN ELISA, looped 15-mer, 10 ug/ml
[1] = target: looped peptide … (rabies virus strain ERA)
[2] = target: looped peptide […] (rabies virus strain ERA)
[3] = target: looped peptide […] (rabies virus strain ERA); remark: listed apart in the source
[4] = target: looped peptide […] (rabies virus strain ERA); remark: listed apart in the source
[5] = target: looped peptide … (rabies virus strain ERA); remark: listed apart in the source
[6] = target: looped peptide … (rabies virus strain ERA); remark: listed apart in the source
[7] = target: looped peptide […] (rabies virus strain ERA); remark: listed apart in the source
[8] = target: looped peptide … (rabies virus strain ERA); remark: listed apart in the source
[9] = target: looped peptide … (rabies virus strain ERA); remark: listed apart in the source
[10] = target: looped peptide … (rabies virus strain ERA); remark: listed apart in the source
[11] = target: looped peptide … (rabies virus strain ERA); remark: listed apart in the source
[12] = target: looped peptide […] (rabies virus strain ERA); remark: listed apart in the source
[13] = target: looped peptide […] (rabies virus strain ERA); remark: listed apart in the source

B1: human monoclonal antibody CRJA (antibody, V domains shown)
VH: EVQLLESGGGLVQPGGSLRLSCAASGFTFSNYAMSWVRQAPGKGLEWVSAISASGHSTYLADSVKGRFTISRDNSKNTLYLQMNSLRAEDTAVYYCAKDREVTMIVVLNGGFDYWGQGTRVTVSS
VL: EIVLTQSPATLSLSPGERATLACRASQTASRYLAWYQQKPGQAPRLLIYDTSNRATGIPARFSGSGSGTDFTLSISSLEPEDFAVYYCQQRFNWPWTFGQGTKVEFK
B1 gave an OD value [1] of 82, an OD value [2] of 320 and an OD value [3] of 123. It also gave an OD value [4] of 164, an OD value [5] of 79 and an OD value [6] of 87. For the same binder, the OD value [7] was 152, the OD value [8] was 50 and the OD value [9] was 90. It also gave an OD value [10] of 71, an OD value [11] of 54 and an OD value [12] of 468. The OD value [13] was 93.
